Measured values as given in doi:10.1101/2023.02.02.526913.
Where two headings read alike, the source gives them in different places.

Assays:
Experiment in all cases: cryo-EM structure
[1] = target: microtubules prepared from porcine brain tubulin (porcine) (UniProt P02550)
[2] = target: microtubules prepared from porcine brain tubulin (porcine) (UniProt P02550); remark: listed apart in the source
[3] = target: microtubules prepared from porcine brain tubulin (porcine) (UniProt P02550); remark: listed apart in the source

Chain of UniProt P02550 (P02550 whole entry, chain 1 of 2): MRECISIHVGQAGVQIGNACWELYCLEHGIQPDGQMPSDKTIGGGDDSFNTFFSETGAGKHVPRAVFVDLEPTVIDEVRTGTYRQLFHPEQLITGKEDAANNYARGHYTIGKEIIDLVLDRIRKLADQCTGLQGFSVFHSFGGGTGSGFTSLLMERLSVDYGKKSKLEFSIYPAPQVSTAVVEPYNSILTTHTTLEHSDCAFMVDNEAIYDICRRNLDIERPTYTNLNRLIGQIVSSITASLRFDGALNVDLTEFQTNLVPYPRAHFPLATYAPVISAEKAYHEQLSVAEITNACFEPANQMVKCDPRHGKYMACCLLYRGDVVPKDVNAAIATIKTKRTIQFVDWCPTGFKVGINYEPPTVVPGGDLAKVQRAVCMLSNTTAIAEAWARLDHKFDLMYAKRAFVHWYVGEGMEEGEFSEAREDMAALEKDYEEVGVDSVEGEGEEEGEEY
Chain of UniProt P02550 (P02554 whole entry, chain 2 of 2, further chain): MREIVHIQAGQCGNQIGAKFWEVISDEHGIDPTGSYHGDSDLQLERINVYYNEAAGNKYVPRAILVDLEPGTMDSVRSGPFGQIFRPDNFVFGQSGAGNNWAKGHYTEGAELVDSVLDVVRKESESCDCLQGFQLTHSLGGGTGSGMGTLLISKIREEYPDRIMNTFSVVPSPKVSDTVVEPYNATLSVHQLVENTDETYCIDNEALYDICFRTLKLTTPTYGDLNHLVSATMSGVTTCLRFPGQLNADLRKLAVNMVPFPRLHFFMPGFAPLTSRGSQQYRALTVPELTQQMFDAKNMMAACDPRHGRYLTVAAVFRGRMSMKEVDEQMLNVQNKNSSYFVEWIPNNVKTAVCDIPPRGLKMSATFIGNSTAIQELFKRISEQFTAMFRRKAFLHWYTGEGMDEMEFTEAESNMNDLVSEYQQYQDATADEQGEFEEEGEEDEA

Row | Substance | decorated fraction of the kinesin sites on tubulin [1] [%] | decorated fraction of the kinesin sites on tubulin [2] [%] | decorated fraction of the kinesin sites on tubulin [3] [%]
1 | KIF1A(aa1-393)-LZ-strepII (from UniProt Q12756 1-393) (domain or fragment) | 32 | 74 | –
2 | KIF1A^P305L (KIF1A(aa1-393, P305L)-LZ-strepII) (from UniProt Q12756 1-393) (domain or fragment) | 25 | – | 9
